Assay results as given in patent US10689452 (UNIVERSIT T STUTTGART, dated 2020).

Assays:
[1] = target: T1, human TNFR1-Fc fusion protein (human, UniProt P19438 29-211); test: QCM, human TNFR1-Fc, moderate receptor density (86 Hz), biphasic fit, koff1 (low-affinity part)
T1 construct: range 29-211; Made in stably transfected HEK293 cells; coated on ELISA plates or immobilised on QCM chips; also called huTNFR1-Fc; human TNFR-Fc; not shown: Fc part from vector pSecTagL1-Fc
T1 sequence (looked up): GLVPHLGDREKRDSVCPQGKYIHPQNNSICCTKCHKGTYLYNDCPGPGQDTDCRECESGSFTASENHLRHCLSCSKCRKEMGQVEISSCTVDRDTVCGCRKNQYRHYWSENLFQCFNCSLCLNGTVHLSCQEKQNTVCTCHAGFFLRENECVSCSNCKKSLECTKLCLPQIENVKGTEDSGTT
Experimental: (§1) Real-time binding dynamics in protein-protein interactions were determined by quartz crystal microbalance measurements (A-100 C-Fast or Cell-200 C-Fast, Attana, Stockholm, Sweden). One of the binding partners (ligand, e.g. TNFR1-Fc) was chemically immobilized on a carboxyl sensor chip according to the manufacturer's protocol at different densities (nearly 200 Hz in the case of saturating conditions to confirm previously published results and 50-100 Hz, in particular at about 50 Hz, to establish conditions of lower receptor density, better resembling the situation on the cellular surface). Binding experiments were performed with samples (analyte) diluted in PBST (PBS, 0.1% Tween 20) at pH 7.4 with a flow rate of 25 µl/min at 37° C. The chip was regenerated with 25 µl 5 mM NaOH or 20 mM glycine, pH 2.0. Every third measurement, an injection of running buffer was measured which was subtracted from the binding curve. Data were collected using the software provided by Attana for the particular device and analyzed by Attaché Office Evaluation software (Attana, Stockholm, Sweden) and TraceDrawe (ridgview instruments, Vange, Sweden).

[2] = target: T1, human TNFR1-Fc fusion protein; test: QCM, human TNFR1-Fc, moderate receptor density (86 Hz), biphasic fit, kon1 (low-affinity part)
Experimental: as §1

[3] = target: T1, human TNFR1-Fc fusion protein; test: QCM, human TNFR1-Fc, moderate receptor density (86 Hz), biphasic fit, KD2 (high-affinity part)
Experimental: as §1

[4] = target: T1, human TNFR1-Fc fusion protein; test: QCM, human TNFR1-Fc, moderate receptor density (86 Hz), biphasic fit, KD1 (low-affinity part)
Experimental: as §1

[5] = target: T2, human TNFR1 on cells (HT1080, HeLa, Kym-1) (human, UniProt P19438 30-455); test: cell-based or functional assay
T2 sequence (looked up): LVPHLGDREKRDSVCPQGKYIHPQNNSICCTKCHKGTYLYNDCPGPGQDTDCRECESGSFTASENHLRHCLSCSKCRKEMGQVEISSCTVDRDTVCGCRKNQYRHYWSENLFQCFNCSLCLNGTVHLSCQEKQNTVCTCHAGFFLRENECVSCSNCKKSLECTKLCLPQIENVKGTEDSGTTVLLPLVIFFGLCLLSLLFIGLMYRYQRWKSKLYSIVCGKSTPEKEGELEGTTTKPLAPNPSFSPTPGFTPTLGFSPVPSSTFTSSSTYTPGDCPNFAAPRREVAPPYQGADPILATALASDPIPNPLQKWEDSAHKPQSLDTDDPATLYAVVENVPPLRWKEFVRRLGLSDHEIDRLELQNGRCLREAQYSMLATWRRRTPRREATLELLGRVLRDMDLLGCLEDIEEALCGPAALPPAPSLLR

[6] = target: T1, human TNFR1-Fc fusion protein; test: ELISA on coated huTNFR1-Fc, antibody titrated, signal as Binding [%]
Experimental: FIG. 13. […] Increasing concentrations were tested for their binding to huTNFR1-Fc in ELISA (n=3, mean±SD).
(§2) Microtiter plates were coated with 100 µl of the indicated protein (1 µg/ml in PBS, see Table 3.3) and incubated at 4° C. over night. The residual binding sites were blocked with 2% MPBS (skim milk in PBS, 200 µl per well) at room temperature for 2 hours and subsequently washed twice with PBS. 100 µl of the samples diluted in 2% MPBS were incubated at room temperature for 1 hour prior to the last incubation step with 100 µl of the HRP conjugated detection antibodies in 2% MPBS. In the case of competition experiments, both analyzed protein samples were prepared individually (either titrated or diluted to a single concentration) and mixed before they were applied to the plate. Bound protein was detected with 100 µl TMB substrate solution, the HRP-reaction was stopped by the addition of 50 µl 1 M H2SO4 and the absorption at the wavelength of 450 nm was measured using the Infinite microtiter plate reader (TECAN, Maennedorf, Switzerland). Between each incubation step and in advance of the detection, the plates were washed three times with PBST and twice with PBS.

[7] = target: T1, human TNFR1-Fc fusion protein; test: ELISA on coated human TNFR1-Fc, reference curve next to Fv13.7-Fckih0DS
Experimental: as §2

[8] = target: T3, human TNFR2-Fc fusion protein (human, UniProt P20333 23-257); test: ELISA on coated receptor-Fc fusion proteins, one antibody concentration (not given on the sheet)
T3 construct: whole entry named; also called huTNFR2
T3 sequence (looked up): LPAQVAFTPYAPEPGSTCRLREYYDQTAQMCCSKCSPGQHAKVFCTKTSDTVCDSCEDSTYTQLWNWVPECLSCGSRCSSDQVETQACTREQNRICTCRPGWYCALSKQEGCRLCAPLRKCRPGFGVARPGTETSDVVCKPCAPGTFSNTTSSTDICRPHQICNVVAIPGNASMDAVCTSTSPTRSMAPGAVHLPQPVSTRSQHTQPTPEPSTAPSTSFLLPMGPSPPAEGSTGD
Experimental: FIG. 12. Species selectivity of scFv13.7 derivatives. […] Presented are mean and SD of two individual experiments.
as §2

[9] = target: T2, human TNFR1 on cells (HT1080, HeLa, …); test: cell-based or functional assay; remark: listed apart in the source
[10] = target: T1, human TNFR1-Fc fusion protein; test: ELISA, human TNFR1-Fc

B1: ATROSAB (antibody, IgG1, V domains shown)
VH: QVQLVQSGAEVKKPGSSVKVSCKASGYTFTDFYINWVRQAPGQGLEWIGEIYPYSGHAYYNEKFKARVTITADKSTSTAYMELSSLRSEDTAVYYCARWDFLDYWGQGTTVTVSS
VL: DIVMTQSPLSLPVTPGEPASISCRSSQSLLHSNGNTYLHWYLQKPGQSPQLLIYTVSNRFSGVPDRFSGSGSGTDFTLKISRVEAEDVGVYYCSQSTHVPYTFGGGTKVEIKR
notes: Humanized full-length IgG1 with a modified Fc region deficient in mediating effector functions (made according to WO2012035141); also called full length IgG ATROSAB
koff [1]: 0.0219 s⁻¹
kon [2]: 282000 M⁻¹ s⁻¹
Kd [3]: 0.38 nM
Kd [4]: 78 nM
IC50, Cytotox (nM); inhibition of Kym-1 cell death by 0.01 nM TNF [5]: 24 nM
IC50, IL-6 (nM); inhibition of the response of HeLa cells to 0.1 nM TNF [5]: 179 nM
IC50, IL-8 (nM); inhibition of the response of HT1080 cells to 0.1 nM TNF [5]: 118 nM
IL-6 release (pg/ml), HeLa cells [5]: 231 pg/mL
IL-8 release (pg/ml), HT1080 cells [5]: 240 pg/mL
EC50 (read off the curve) [6]: ~1 nM
EC50 (read off the curve) [7]: ~0.2 nM
binding result [8]: no binding
Factor, IC50 LT (ATROSAB against H398) [9]: 12 fold
Factor, IC50 TNF (ATROSAB against H398) [9]: 10 fold
IC50, LT [nM] (inhibition of IL-8 release from HT1080 cells induced by LTα) [9]: 7.6 nM
IC50, TNF [nM] (inhibition of IL-8 release from HT1080 cells induced by 0.1 nM TNF) [9]: 42 nM
fold weaker binding (higher EC50) compared with IgG13.7 [10]: 1.4 fold
